How the values were obtained:
[1] = target: GFP-tagged full length Shank3 S685A (rat) (rat); experiment: co-IP
[2] = target: GFP-tagged full length Shank3 S685D (rat) (rat); experiment: co-IP
[3] = target: GST-Shank3 (572-691) wild type, pre-phosphorylated by CaMKIIα at Ser685 (rat); experiment: pull-down
GST-Shank3 (572-691) wild type, pre-phosphorylated by CaMKIIα at Ser685 (rat), sequence (Q9JLU4 572-691): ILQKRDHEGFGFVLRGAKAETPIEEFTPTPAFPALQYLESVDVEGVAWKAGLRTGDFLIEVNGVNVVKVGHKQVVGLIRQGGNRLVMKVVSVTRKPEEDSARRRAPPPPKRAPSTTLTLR

N-terminal HA-tagged ABI1 (Abelson interactor 1), full length (from UniProt Q8IZP0 1-508) (natural protein)
percent reduction of co-immunoprecipitated HA-ABI1 (HA/GFP) compared to WT [1]: 37% | percent reduction of co-immunoprecipitated HA-ABI1 (HA/GFP) compared to WT [2]: 32% | HA-ABI1 binding (HA/GST) relative to no CaMKII condition [3]: 148%
